Assays:
[1] = cell surface biotinylation, Western blot quantitation; conditions: glycan lost; control: wild type
[2] = domain-selective surface biotinylation of polarized cells; conditions: glycan lost; control: wild type

Substance: voltage-gated sodium channel β2 subunit: N42,66,74Q
- localisation_or_trafficking [1]: decreases
- other: apical versus basolateral polarity of surface protein [2]: no change
